Patent publication US20260209362A1 (VIB VZW, published 2026)

T1: biotinylated recombinant human IL-12Rβ2 (human, UniProt Q99665 24-622, random biotinylated)
T1 construct: Recombinant protein produced in-house, biotinylated; also called hIL-12RB2; human IL-12RB2
T1 sequence: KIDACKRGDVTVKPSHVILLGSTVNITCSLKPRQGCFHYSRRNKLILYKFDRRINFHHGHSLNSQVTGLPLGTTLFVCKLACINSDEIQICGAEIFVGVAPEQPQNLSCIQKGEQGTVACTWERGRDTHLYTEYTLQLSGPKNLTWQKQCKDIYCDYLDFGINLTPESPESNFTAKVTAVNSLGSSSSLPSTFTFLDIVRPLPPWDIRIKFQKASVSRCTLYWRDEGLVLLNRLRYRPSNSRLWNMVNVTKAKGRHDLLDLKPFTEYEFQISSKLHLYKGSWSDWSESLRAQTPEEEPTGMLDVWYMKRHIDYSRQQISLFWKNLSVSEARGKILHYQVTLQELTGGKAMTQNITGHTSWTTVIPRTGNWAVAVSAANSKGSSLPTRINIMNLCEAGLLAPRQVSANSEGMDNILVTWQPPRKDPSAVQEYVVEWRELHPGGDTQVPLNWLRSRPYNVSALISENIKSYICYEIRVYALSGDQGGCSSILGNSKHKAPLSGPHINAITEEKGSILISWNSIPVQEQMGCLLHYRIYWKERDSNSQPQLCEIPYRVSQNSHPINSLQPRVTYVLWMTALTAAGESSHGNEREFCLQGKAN

T2: biotinylated recombinant mouse IL-12Rβ2 (mouse, UniProt P97378 24-637, random biotinylated)
T2 construct: Recombinant protein produced in-house, biotinylated; also called mIL-12RB2; mouse IL-12RB2
T2 sequence: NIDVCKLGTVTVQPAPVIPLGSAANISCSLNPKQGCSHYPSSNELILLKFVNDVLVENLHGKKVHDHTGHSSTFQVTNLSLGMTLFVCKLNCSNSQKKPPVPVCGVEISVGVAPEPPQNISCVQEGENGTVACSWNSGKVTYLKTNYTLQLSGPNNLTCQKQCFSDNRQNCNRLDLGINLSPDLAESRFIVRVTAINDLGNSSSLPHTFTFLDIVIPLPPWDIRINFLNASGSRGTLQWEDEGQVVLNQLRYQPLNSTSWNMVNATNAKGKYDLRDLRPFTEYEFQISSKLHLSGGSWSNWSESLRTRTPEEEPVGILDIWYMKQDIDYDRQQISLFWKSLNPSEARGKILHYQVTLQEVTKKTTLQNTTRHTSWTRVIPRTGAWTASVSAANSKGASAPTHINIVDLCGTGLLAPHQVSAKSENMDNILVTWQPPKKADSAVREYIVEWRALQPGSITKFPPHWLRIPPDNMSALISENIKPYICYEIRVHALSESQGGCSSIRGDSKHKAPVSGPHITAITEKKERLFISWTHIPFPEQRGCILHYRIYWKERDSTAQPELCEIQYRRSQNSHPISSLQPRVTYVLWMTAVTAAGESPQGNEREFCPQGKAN

T3: biotinylated human recombinant IL-12Rβ2 (produced in-house) (human, UniProt Q99665 24-622, random biotinylated)
T3 construct: Soluble recombinant protein used for panning, ELISA and BLI; also called hIL-12RB2; hIL12RB2
T3 sequence: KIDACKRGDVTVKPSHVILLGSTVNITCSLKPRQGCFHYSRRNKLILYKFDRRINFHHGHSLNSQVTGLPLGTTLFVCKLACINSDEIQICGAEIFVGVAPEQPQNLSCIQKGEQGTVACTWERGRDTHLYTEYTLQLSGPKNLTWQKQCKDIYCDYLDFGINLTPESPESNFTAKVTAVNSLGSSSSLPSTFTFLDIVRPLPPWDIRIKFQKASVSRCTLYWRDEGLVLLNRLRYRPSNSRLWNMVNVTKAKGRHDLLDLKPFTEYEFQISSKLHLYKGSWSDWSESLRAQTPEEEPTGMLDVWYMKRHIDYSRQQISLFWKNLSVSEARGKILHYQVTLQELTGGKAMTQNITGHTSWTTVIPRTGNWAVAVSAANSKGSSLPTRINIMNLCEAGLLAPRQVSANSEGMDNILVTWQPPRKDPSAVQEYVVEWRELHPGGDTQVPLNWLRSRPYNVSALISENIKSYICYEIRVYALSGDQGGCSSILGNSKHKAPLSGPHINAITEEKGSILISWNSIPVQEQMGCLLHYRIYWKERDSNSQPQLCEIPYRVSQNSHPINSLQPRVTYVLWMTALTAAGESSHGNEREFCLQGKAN

T4: biotinylated mouse recombinant IL-12Rβ2 (produced in-house) (mouse, UniProt P97378 24-637, random biotinylated)
T4 construct: Soluble recombinant protein used for panning, ELISA and BLI; also called mIL-12RB2; mIL12RB2
T4 sequence: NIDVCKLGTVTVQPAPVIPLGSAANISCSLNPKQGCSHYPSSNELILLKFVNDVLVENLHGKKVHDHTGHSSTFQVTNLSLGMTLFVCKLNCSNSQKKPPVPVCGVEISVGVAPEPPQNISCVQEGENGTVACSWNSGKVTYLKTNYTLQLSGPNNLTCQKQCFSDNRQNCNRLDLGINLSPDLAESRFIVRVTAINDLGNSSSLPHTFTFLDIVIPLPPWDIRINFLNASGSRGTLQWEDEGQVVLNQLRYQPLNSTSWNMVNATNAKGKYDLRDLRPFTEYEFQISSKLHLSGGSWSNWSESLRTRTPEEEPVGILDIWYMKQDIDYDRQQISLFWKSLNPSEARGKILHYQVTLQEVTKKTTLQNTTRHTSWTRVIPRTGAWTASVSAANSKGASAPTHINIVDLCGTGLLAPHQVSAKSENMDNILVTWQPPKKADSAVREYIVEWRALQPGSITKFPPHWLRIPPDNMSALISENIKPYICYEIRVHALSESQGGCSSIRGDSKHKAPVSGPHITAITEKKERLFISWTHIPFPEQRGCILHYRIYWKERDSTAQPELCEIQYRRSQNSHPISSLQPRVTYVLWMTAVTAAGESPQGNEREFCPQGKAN

T5: human IL-12Rβ2 expressed on cells (human, UniProt Q99665 24-862)
T5 construct: the cell lines are described by plasmid or cDNA number only; also called hIL-12RB2; HEK293T transiently transfected with human IL-12Rβ2
T5 sequence: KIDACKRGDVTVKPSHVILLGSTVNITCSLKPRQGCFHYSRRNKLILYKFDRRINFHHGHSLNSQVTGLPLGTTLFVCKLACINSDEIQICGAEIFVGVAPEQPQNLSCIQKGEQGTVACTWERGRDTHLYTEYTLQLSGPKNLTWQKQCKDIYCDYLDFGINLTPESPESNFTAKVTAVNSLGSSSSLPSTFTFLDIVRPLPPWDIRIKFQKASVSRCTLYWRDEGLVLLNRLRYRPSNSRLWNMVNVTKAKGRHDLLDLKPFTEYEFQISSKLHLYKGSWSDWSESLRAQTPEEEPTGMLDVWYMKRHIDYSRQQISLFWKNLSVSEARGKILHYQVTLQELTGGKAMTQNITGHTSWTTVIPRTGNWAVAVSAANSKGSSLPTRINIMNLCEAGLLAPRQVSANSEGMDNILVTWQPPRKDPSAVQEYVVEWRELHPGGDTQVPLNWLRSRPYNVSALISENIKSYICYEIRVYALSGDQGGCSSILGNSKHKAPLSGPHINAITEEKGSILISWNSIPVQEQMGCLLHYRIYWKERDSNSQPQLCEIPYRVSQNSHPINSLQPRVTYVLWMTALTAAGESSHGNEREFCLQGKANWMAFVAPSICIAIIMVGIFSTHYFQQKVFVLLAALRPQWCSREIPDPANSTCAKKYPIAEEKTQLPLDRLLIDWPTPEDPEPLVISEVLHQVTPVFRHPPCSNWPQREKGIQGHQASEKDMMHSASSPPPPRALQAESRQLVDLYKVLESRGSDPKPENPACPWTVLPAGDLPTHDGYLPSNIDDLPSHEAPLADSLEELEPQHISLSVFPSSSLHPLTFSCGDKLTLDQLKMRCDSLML

B1: anti-IL-12Rβ2 VHH clone 20358 (VHH, not shown: small tags and cut ends)
VHH: QVQLQESGGGSVQPGGSLRLSCGASGFTFSSFGMHWFRQAPGKGQEWAATISSSGGTTYYSDSVKGRFTISRDNAKNTLYLQMNSLKPEDTALYYCARDVTGAVRGQGTQVTVSS
notes: tested as periplasmic extract; also called 3CAH34
B2: anti-IL-12Rβ2 VHH clone 20408 (VHH, not shown: small tags and cut ends)
VHH: QVQLQESGGGSVQAGGSLRLSCGASGFTFSSFGMHWFRQAPGKGQEWVATISSSGGTTYYSDSVKGRFTISRDNAKNTLYLQMNSLKPEDTALYYCARDVTGAVRGQGTQVTVSS
notes: tested as periplasmic extract; also called 3CAHS172
B3: anti-IL-12Rβ2 VHH clone 3CAHS124 (clone ID 20400) (VHH)
VHH: QVQLQESGGGLVQPGGSLRLSCAASGRTINAYIMGWFRQAPGKEREFVAAVSGSGGSTYYADSVKGRFTISRDNAKNTVNLQMDNLRSEDTDVYYCAATYESVYLQNPGQYDYWGQGTQVTVSS
notes: Tested as periplasmic extract; not shown: C-terminal HA tag
B4: anti-IL-12Rβ2 VHH clone 3CRH5 (clone ID 20373) (VHH)
VHH: QVQLQESGGGLVQAGGSLVLSCAASGSAALIFLMSWYRQAPGKQRELVAEVSRGGSTTYADSVEGRFTISRDNAKNIVDLQMNSLKPEDTAVYYCKADQNYGDSLRSSWGQGTQVTVSS
notes: Tested as periplasmic extract; also called 3CRHS; not shown: C-terminal HA tag
B5: anti-IL-12Rβ2 VHH clone 2CRH82 (clone ID 20372) (VHH)
VHH: QVQLQESGGGLVQAGGSLRLSCAASARTESMYAMAWFRQAPGKEREIVAGIIQSGGTTYISDYMKGRFSIDRGNAENTVYLQMDSLKPEDTAVYSCAAKVSSGTPSDIQISQSRWYDHWGQGTQVTVSS
notes: as for B3
B6: anti-IL-12Rβ2 VHH clone 20404 (VHH, not shown: small tags and cut ends)
VHH: QVQLQESGGGLVQAGGSLRLSCAASGRTFSSYAMGWFRQVPGKERDFVAAVSWGGLSTYYADSVEGRFTISRDNAKNTVFLQMNSLKPEDTAVYYCAADRAYEGLGYGEYEYWGQGTQVTVSS
notes: tested as periplasmic extract; also called 3CAHS153
B7: anti-IL-12Rβ2 VHH clone 3CRHS128 (clone ID 20432) (VHH)
VHH: QVQLQESGGGLVQPGGSLRLSCAASGFTFSTSGMHWFRQAPGKGLEWVSSIGATVDNSYYASSVKGRFTISRDNAKNTLYLLMNSLKSEDTAVYYCSKDPTGSSRGQGTQVTVSS
notes: as for B3
B8: anti-IL-12Rβ2 VHH clone 3CRHS51 (clone ID 20421) (VHH)
VHH: QVQLQESGGGLVQPGGSLRLSCAASGFTFSTYAMSWVRQAPGKGLEWVSAVNSGGLSTDYADSVEGRFTISRDDAKNMLFLQMNRLKPEDTARYYCAKYEDCSDYVCDRAGYWGQGTQVTVSS
notes: Tested as periplasmic extract; also called 3CRHSS1; not shown: C-terminal HA tag
B9: anti-IL-12Rβ2 VHH clone 3CRHS54 (clone ID 20422) (VHH)
VHH: QVQLQESGGGLVQPGGSLRLSCTASGSIVSIYNMDWYRQAPGNEREWVASITSSGDPYYDGSAKGRFTISRDNAKMTVYLQMNSLEPEDTAVYFCKVPTEKGNYWGQGTQVTVSS
notes: Tested as periplasmic extract (P.E.) from the pMECS vector; not shown: C-terminal HA tag
B10: anti-IL-12Rβ2 VHH clone 3CRHS9 (clone ID 20415) (VHH)
VHH: QVQLQESGGGLVQPGGSLRLSCTASGSIVSIYNMDWYRQAPGNEREWVASITSSGDPYYDGSAKGRFTISRDNAKMTVYLQMNSLKPEDTAVYYCKVPTEKGNYWGQGTQVTVSS
notes: Tested as periplasmic extract; also called 3CRMS9; not shown: C-terminal HA tag

Columns and labels:
[1] = biological target: T1, biotinylated recombinant human IL-12Rβ2; test: BLI (Octet), periplasmic extract on biotinylated hIL-12Rβ2 on streptavidin tips
[2] = biological target: T1, biotinylated recombinant human IL-12Rβ2; test: BLI (Octet), periplasmic extract on biotinylated hIL-12Rβ2 on streptavidin tips, 1:1 model
[3] = biological target: T1, biotinylated recombinant human IL-12Rβ2; test: ELISA, periplasmic extract on biotinylated hIL-12Rβ2, signal over control wells
[4] = biological target: T2, biotinylated recombinant mouse IL-12Rβ2; test: ELISA, periplasmic extract on biotinylated mIL-12Rβ2, signal over control wells
[5] = biological target: T3, biotinylated human recombinant IL-12Rβ2 …; test: ELISA, periplasmic extract on biotinylated human IL-12Rβ2; signal over streptavidin control well
[6] = biological target: T4, biotinylated mouse recombinant IL-12Rβ2 …; test: ELISA, periplasmic extract on biotinylated mouse IL-12Rβ2; signal over streptavidin control well
[7] = biological target: T4, biotinylated mouse recombinant IL-12Rβ2 …; test: ELISA, periplasmic extract on biotinylated mouse IL-12Rβ2
[8] = biological target: T5, human IL-12Rβ2 expressed on cells; test: flow cytometry, periplasmic extract VHH-HA on HEK293T cells transiently expressing human IL-12Rβ2
[9] = biological target: T3, biotinylated human recombinant IL-12Rβ2 …; test: BLI (Octet Red), periplasmic extract on biotinylated human IL-12Rβ2 on streptavidin tips
[10] = biological target: T3, biotinylated human recombinant IL-12Rβ2 …; test: BLI (Octet Red), periplasmic extract on biotinylated human IL-12Rβ2 on streptavidin tips, 1:1 model

Binder	Response [1]	koff [2] [s⁻¹]	ELISA binding hIL-12RB2/control [3] [ratio]	ELISA binding mIL-12RB2/control [4] [ratio]	hIL12RB2/control (ELISA) [5] [ratio]	mIL12RB2/control (ELISA) [6] [ratio]	binding result [7]	% cells bound [8] [%]	dMFI [8]	Response [9]	koff [10] [s⁻¹]
B1	0.69	0.00636	5.01	1.12							
B2	0.388	0.00383	3.49	1.11							
B3					5.67	1	no binding	46.3	1100	0.293	0.00324
B4					8.64	0.81	no binding	39.5	735	0.491	0.00337
B5					16.1	1.77	no binding	40.1	744	0.426	0.00274
B6	0.163	0.00302	3.32	1.08							
B7					3.65	0.98	no binding	50.5	1380	0.294	0.00274
B8							no binding	46	1140	0.327	0.0043
B9					7.85	1.25	no binding	41.5	870	0.203	0.00272
B10					5.08	1.09	no binding	42.1	941	0.222	0.0034
